Test results reported in EP4631972A1, “SITE-SPECIFIC COUPLED PEGYLATED INTERLEUKIN-2 MUTANT WITH RECEPTOR AFFINITY PREFERENCE AND USE THEREOF” (priority 2022, dated 2024).

Biological target: T1, IL-2βγ dual receptor (Homo sapiens, UniProt P14784+P31785)
T1 construct: Uniprot P14784 1Met-551Val was constructed into plasmid pcDNA3.1(+); Uniprot P31785 1Met-551Thr was constructed into plasmid pcDNA3.1/zeo; expressed in transfected cells; host or cells: 293EC18 cells, transient co-transfection with pCMV/JAK3 and PGL4.52/STAT5RE
T1 sequence (P14784 27-551): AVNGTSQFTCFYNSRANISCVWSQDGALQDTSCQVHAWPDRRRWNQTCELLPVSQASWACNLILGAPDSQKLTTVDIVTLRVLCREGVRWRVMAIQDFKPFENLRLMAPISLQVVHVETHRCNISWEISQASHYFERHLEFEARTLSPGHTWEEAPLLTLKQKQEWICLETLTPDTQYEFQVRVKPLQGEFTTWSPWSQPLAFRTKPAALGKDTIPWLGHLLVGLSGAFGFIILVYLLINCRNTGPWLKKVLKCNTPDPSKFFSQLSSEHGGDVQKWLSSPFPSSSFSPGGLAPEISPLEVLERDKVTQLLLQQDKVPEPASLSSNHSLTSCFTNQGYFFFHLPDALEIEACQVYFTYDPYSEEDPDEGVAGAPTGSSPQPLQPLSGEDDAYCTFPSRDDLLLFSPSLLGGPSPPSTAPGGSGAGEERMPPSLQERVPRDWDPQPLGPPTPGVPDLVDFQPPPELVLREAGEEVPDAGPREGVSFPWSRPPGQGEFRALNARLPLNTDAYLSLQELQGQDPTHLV
T1 sequence (P31785 23-369): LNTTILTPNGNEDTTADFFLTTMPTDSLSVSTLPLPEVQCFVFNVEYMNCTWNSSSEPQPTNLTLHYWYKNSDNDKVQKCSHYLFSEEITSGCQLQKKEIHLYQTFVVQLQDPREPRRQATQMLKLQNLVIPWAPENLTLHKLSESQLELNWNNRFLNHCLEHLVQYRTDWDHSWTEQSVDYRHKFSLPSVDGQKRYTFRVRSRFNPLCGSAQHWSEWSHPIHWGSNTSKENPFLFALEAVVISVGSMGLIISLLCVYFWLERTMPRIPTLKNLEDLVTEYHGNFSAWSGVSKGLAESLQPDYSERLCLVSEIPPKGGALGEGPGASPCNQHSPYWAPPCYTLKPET
Assay: STAT5 reporter gene assay, activation of IL-2βγ dual receptor in 293EC18/βγ/JAK3/STAT5 cells
Format: cell-based
Conditions: for activation effect on the IL-2Rβγ dual receptor compared with control IL-2 N88R: Figure 1, concentration of 65.2 nM
Experimental: Since the binding of IL-2 to the β and γ subunits of its receptor induces STAT5 phosphorylation, which subsequently leads to dimerization and translocation into the nucleus to promote target gene transcription, this example evaluates the ability of the mutant IL-2 polypeptides to induce signaling through the IL-2 receptor by measuring STAT5 phosphorylation.
Adherent 293EC18 cells were cultured to about 90% confluence using conventional methods. After trypsin digestion, the cells were resuspended in cell culture medium to 4×10^5 cells/ml and 50 µl/well were added to two 96-well cell culture plates. After incubation at 37°C for 48 h, the supernatant was aspirated and fresh culture medium was added. According to the manufacturer's method, four plasmids, pcDNA3.1(+)/CD122 (constructed by Nanjing Novoacine Biotechnology Co., Ltd, Uniprot P14784 1Met-551Val was constructed into plasmid pcDNA3.1(+)), pcDNA3.1/puro/CD132 (constructed by Nanjing Novoacine Biotechnology Co., Ltd, Uniprot P31785 1Met-551Thr was constructed into plasmid pcDNA3.1/zeo), pCMV/JAK3 (Sino Biological), and PGL4.52/STAT5RE (Promega) were transiently transfected into 293EC18 cells using a cationic transfection reagent (ExFect Transfection Reagent, Vazyme). The obtained cells were named 293EC18/βγ/JAK3/STAT5 cells. Alternatively, five plasmids, pcDNA3.1/zeo/CD25 (constructed by Nanjing Novoacine Biotechnology Co., Ltd, Uniprot P01589 1Met-551Ile constructed into plasmid pcDNA3.1/zeo), pcDNA3.1(+)/CD122 (constructed by Nanjing Novoacine Biotechnology Co., Ltd, Uniprot P14784 1Met-551Val constructed into plasmid pcDNA3.1(+)), pcDNA3.1/puro/CD132 (constructed by Nanjing Novoacine Biotechnology Co., Ltd, UniprotP31785 1Met-551Thr constructed into plasmid pcDNA3.1/zeo), pCMV/JAK3 (Sino Biological), and PGL4.52/STAT5RE (Promega) were transiently transferred into 293EC18 cells, and the obtained cells were named 293EC18/αβγ/JAK3/STAT5 cells. The transfected cells were incubated at 37°C and 5% CO2 for another 6 h.
Each IL2 mutant was diluted 4-fold in a gradient manner using PBS buffer, with a total of 11 dilutions and a starting concentration of 65.2 nM. In the above cell culture plates, 50 µl/well of each of the serially diluted IL2 mutant samples was added in duplicate. Then, the cell culture plate was placed in an incubator at 37°C and 5% CO2 for overnight culture. The cell culture plates were kept at room temperature for 20 ± 5 minutes to equilibrate the plates to room temperature. Bio-Lite Luciferase Assay System reagents that have been mixed and equilibrated to room temperature were added to the cell culture plates to be tested at 100 µl/well, placed on a microplate shaker at 450 rpm to mix for 2 minutes, then allowed to stand at room temperature for 3 minutes, and the chemiluminescence value was detected with an enzyme plate reader.
The logarithm of the final concentration of each IL-2 mutant sample was used as the X-axis, and the chemiluminescence detection results were used as the Y-axis for plotting. Data were analyzed using the four-parameter logistic regression model in GraphPad Prism 9. Table 2 EC50 values for the activation of the IL-2αβγ triple receptor by PEG-IL-2 mutants as determined by a reporter gene assay.
According to the method of Example 3, each polyethylene glycol-modified mutant obtained in this example was assessed for the binding preference to the IL2 receptors by a reporter assay. Table 4 EC50 values for the activation of the IL-2αβγ triple receptor by PEG-IL-2 mutants as determined by a reporter gene assay.
Referring to Example 3, the phosphorylation of STAT5 was used to evaluate the ability of the PEG-modified IL-2 mutants having a non-natural amino acid mutation prepared in Example 14 to induce signal transduction via the IL-2 receptor. […]

B1: 80K-1PEG-IL2-N88R-N77C: IL-2 mutant N88R, N77C, conjugation site 77, PEG molecular weight 80kD (conjugate)
chain: APTSSSTKKTQLQLEHLLLDLQMILNGINNYKNPKLTRMLTFKFYMPKKATELKHLQCLEEELKPLEEVLNLAQSKC(PEG 80 kDa)FHLRPRDLISRINVIVLELKGSETTFMCEYADETATIVEFLNRWITFSQSIISTLT
activation effect on the IL-2Rβγ dual receptor compared with control IL-2 N88R: lower activation effects
activation effect on the IL-2Rβγ dual receptor compared with control IL-2 N88R (listed as 80k-PEG-IL2-N88R-N77C): the most significant reduction in activation ability
activation effect on / affinity to IL-2Rβγ dual receptor compared with control IL-2 N88R (Figure 2, all concentrations): further reduced the affinity to IL-2Rβγ
